# From article PMC4865122, “Structural Analysis and Insights into the Oligomeric State of an Arginine-Dependent Transcriptional Regulator from Bacillus halodurans” (PLoS ONE, 2016)
# B1: Arginine repressor (ArgR, BH2777) from Bacillus halodurans (natural protein, UniProt Q9K973 1-149, looked up)
# chain: MNKGQRHIKIREIIANNDVETQDELVEQLKAAGYNVTQATVSRDIKELHLVKVPMMDGRYKYSLPADQRFNPLQKLKRGLVDSFVSIDRTDNLIVMKTLPGNAHAIGALIDNLDWTEIMGTICGDDTILIICKDKQDGPVVTERFLNML
# notes: Arginine repressor ArgR (BH2777), Bacillus halodurans, 149 amino acid residues; Met1, Asp2 and Lys3 were in the crystal but disordered, and the model covers residues 4-149; The tag is named for the SEC-MALS sample; Oligomer: trimer without L-arginine, hexamer with 10 mM L-arginine; also called BhArgR; B. halodurans ArgR; source: overexpressed and purified
# Legend:
# [1] = target: T1, BhArgR (ArgR, Bh2777) (Halalkalibacterium halodurans, UniProt Q9K973); assay: SEC-MALS (trimer to hexamer shift); EMSA; conditions: 10 mM L-arginine; SEC-MALS: 20 mM Tris-HCl pH 8.0, 200 mM NaCl, 2 mM MgCl2, 1 mM DTT; EMSA with argG ARG box DNA at 4 C; corepressor; indirect evidence of binding
# T1 construct: full length, 149 residues; hexa-histidine tagged in SEC-MALS; trimer (57 kDa) without L-arginine, hexamer (114 kDa) with L-arginine
# T1 sequence (Q9K973 1-149): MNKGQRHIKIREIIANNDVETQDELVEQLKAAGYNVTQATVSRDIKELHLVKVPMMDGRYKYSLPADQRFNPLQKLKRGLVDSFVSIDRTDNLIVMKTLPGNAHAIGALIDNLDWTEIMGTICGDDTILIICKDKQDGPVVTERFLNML
# [2] = target: T2, BhArgR (Bacillus halodurans) (UniProt Q9K973); assay: EMSA; conditions: 50 mM Tris-HCl pH 7.5, 200 mM NaCl, 10 mM MgCl2, 10 mM CaCl2, 10% glycerol; on ice 40 min; 6% native PAGE in TBE pH 8.8 +/- 10 mM L-arginine, 4 C
# T2 sequence: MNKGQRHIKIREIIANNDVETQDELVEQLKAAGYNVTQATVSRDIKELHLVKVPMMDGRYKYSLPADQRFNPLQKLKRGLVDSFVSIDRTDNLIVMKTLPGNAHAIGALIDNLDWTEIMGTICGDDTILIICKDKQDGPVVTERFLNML
# [3] = target: the molecule itself; assay: SEC-MALS; Superdex-200 10/300 GL, 20 mM Tris-HCl pH 8.0, 200 mM NaCl, 2 mM MgCl2, 1 mM DTT; 3~6 mg/ml injected; with 10 mM L-arginine
molecule,measurement,setting,value
N=C(N)NCCC[C@H](N)C(=O)O [L-arginine],SEC-MALS (trimer to hexamer shift); EMSA,[1],it formed a hexamer in the presence of L-arginine in multi-angle light scattering (MALS) studies
CCCAGAATACGCTAAGACAACTTTCTTTTTGCTCATGCTAACAATCCCTCCAAAGTGAATATTCATACTCTTGTTATTATTTTTATACATCCACTTGCATAAAAAAAGGCCTGTATAAA (double strand) [119-bp cognate argG promoter DNA],binding,[2],binds
B1,stoichiometry N,[3],6
